From EP0832229B1 come the findings set out here.

Several values for one entry are separate records, joined by “and”; a condition that tells them apart may be missing. Equal entries are not always repeated.

The target in assay [1] is CD40/Fc fusion protein (extracellular domain of human CD40 fused to the Fc domain of human IgG1) (human) (UniProt P25942). In words: BIAcore SPR, CD40/Fc captured by goat anti-human IgG1 Fc; experiment 1.
The target is the same in assay [2]. The experiment in a line: BIAcore SPR, CD40/Fc captured by goat anti-human IgG1 Fc; K1 (site 1); experiment 1. (SPR reads the build-up and loss of mass on a sensor chip optically.)
Assay [3] shares this target. In words: BIAcore SPR, CD40/Fc captured by goat anti-human IgG1 Fc; K2 (site 2); experiment 1.
The target is the same in assay [4]. In words: BIAcore SPR, CD40/Fc captured by goat anti-human IgG1 Fc; experiment 2.
Assay [5] has the same target. In words: BIAcore SPR, CD40/Fc captured by goat anti-human IgG1 Fc; K1 (site 1); experiment 2.
Assay [6] shares this target. In words: BIAcore SPR, CD40/Fc captured by goat anti-human IgG1 Fc; K2 (site 2); experiment 2.
For assay [7] the target is unchanged. The experiment in a line: BIAcore SPR substantially as in Example 3; K1; average of two preparations.
Assay [8] shares this target. In words: biosensor (BIAcore) assay substantially as in Example 3, CD40/Fc captured.
The target is the same in assay [9]. In words: BIAcore SPR substantially as in Example 3; K2; average of two preparations.
The next assay concerns the target CD40 on B cells (UniProt P25942). The experiment in a line: cell-based or functional assay.

As to “dimeric human CD40L (CD40L/Fc) (from UniProt P27548 47-260) (Fc fusion)”, in assay [1], the Site 1 (mol/mol CD40/Fc) (mol/mol CD40/Fc) turned out to be 0.013 and the Site2 (mol/mol CD40/Fc) (mol/mol CD40/Fc) stood at 0.049. For the same molecule, in assay [2], the Ka came out at 1.6e+11 M⁻¹. In assay [3], this molecule registered a Ka of 7e+08 M⁻¹.
Take “monomeric human CD40L (comprising solely the portion of the extracellular domain most homologous to TNF) (from UniProt P27548 112-260) (ligand)”: the Site2 (mol/mol CD40/Fc) (mol/mol CD40/Fc) in assay [4] was 1.2 and 1.27.
As for “trimeric human CD40L (CD40L/"leucine zipper"): oligomerizing zipper followed by the extracellular region of human CD40L, amino acids 51-261 (ligand)”, the Ka in assay [5] is 6.6e+08 M⁻¹; in assay [6] it was 2.6e+07 M⁻¹; in [2], 5e+09 M⁻¹; in assay [3], 7.5e+07 M⁻¹. The Site 1 (mol/mol CD40/Fc) (mol/mol CD40/Fc) in [1] amounted to 0.04; in [4], 0.26. Also, the Site2 (mol/mol CD40/Fc) (mol/mol CD40/Fc) in assay [1] amounted to 0.68; in [4] it was 0.41.
With “trimeric murine CD40L (oligomerizing zipper, Flag octapeptide, extracellular region of murine CD40L) (from UniProt P27548 47-260) (ligand)”, in assay [1], the Site 1 (mol/mol CD40/Fc) (mol/mol CD40/Fc) is 0.02 and the Site2 (mol/mol CD40/Fc) (mol/mol CD40/Fc) came out at 0.44. In assay [2], this molecule showed a Ka of 6e+10 M⁻¹. In assay [3], this molecule came in with a Ka of 1.6e+08 M⁻¹.

B1: wild type CD40 ligand/zipper domain fusion protein (WT) expressed in yeast (ligand, part only; not given: leucine zipper sequence, part only)
chain, part: MQRGDEDPQIAAHVVSEANSNAASVLQWAKKGYYTMKSNLVMLENGKQLTVKREGLYYVYTQVTFCSNREPSSQRPFIVGLWLKPSSGSERILLKAANTHSSSQLCEQQSVHLGGVFELQAGASVFVNVTEASQVIHRVGFSSFGLLKL
As to B1, the Ka was found to be 7.4e+08 M⁻¹ in assay [7], 7.7e+07 M⁻¹ in assay [8] and 3e+07 M⁻¹ in assay [9]. Besides, the B-cell proliferation (U/µg), Experiment 1 in the assay with CD40 on B cells stood at 77 U/µg. For the same molecule, in the assay with CD40 on B cells, the B-cell proliferation (U/µg), Experiment 2 stood at 15 U/µg.
